In patent US20080020377A1:

Key:
[1] = target: Tet repressor protein from class B [TetR(B)] (Escherichia coli) (UniProt P04483); assay: cell-based or functional assay
[2] = target: TetR(B/D)188-208 (UniProt P0ACT4); assay: cell-based or functional assay

“PepBs1-TrxA (N-terminal fusion of pepBs1 to Escherichia coli thioredoxin A) (from UniProt P0AA25 2-109)” gave a factor of induction of β-galactosidase activity at 60 µM IPTG [1] of 40 fold and an induction of β-galactosidase activity against the C-terminal fusion TrxA-pepBs1 (fold higher than the C-terminal fusion) [1] of 3.
Substance “SbmC(C)-pepBs1 fusion protein (from UniProt P33012 1-157)” has a β-galactosidase activity at 60 µM IPTG [2] of 4 fold.
With “TrxA-pepBs1 (C-terminal fusion of pepBs1 to Escherichia coli thioredoxin A) (from UniProt P0AA25 2-109)” the factor of induction of β-galactosidase activity at 60 µM IPTG [1] was 14 fold.
